Measured values published in patent US20100298539A1 (ALLIGATOR BIOSCIENCE, published 2010).

B1: human C5a receptor (C5aR) (receptor)
chain: MDSFNYTTPDYGHYDDKDTLDLNTPVDKTSNTLRVPDILALVIFAVVFLVGVLGNALVVWVTAFEAKRTINAIWFLNLAVADFLSCLALPILFTSIVQHHHWPFGGAACSILPSLILLNMYASILLLATISADRFLLVFKPIWCQNFRGAGLAWIACAVAWGLALLLTIPSFLYRVVREEYFPPKVLCGVDYSHDKRRERAVAIVRLVLGFLWPLLTLTICYTFILLRTWSRRATRSTKTLKVVVAVVASFFIFWLPYQVTGIMMSFLEPSSPTFLLLKKLDSLCVSFAYINCCINPIIYVVAGQGFQGRLRKSLPSLLRNVLTEESVVRESKSFTRSTVDTMAQKTQAV
notes: whole, on cells; also called CD88; U937/C5aR cells
B2: human formylated peptide receptor (FPR) (receptor)
chain: METNSSLPTNISGGTPAVSAGYLFLDIITYLVFAVTFVLGVLGNGLVIWVAGFRMTHTVTTISYLNLAVADFCFTSTLPFFMVRKAMGGHWPFGWFLCKFVFTIVDINLFGSVFLIALIALDRCVCVLHPVWTQNHRTVSLAKKVIIGPWVMALLLTLPVIIRVTTVPGKTGTVACTFNFSPWTNDPKERINVAVAMLTVRGIIRFIIGFSAPMSIVAVSYGLIATKIHKQGLIKSSRPLRVLSFVAAAFFLCWSPYQVVALIATVRIRELLQGMYKEIGIAVDVTSALAFFNSCLNPMLYVFMGQDFRERLIHALPASLERALTEDSTQTSDTATNSTLPSAEVELQAK
notes: whole, on cells; also called formyl-peptide-receptor

Assays:
[1] = molecular target: T1, Chemotaxis Inhibitory Protein of Staphylococcus aureus (CHIPS), wildtype, amino acids 1-121 (Staphylococcus aureus, UniProt A6QIG7 29-149); test: competition: CHIPS given iv (0.1 mg/kg) against the binding of FITC labelled anti-CD88 mAb to C5aR on gated blood neutrophils, flow cytometry [B) (cont.]
[2] = molecular target: T1, Chemotaxis Inhibitory Protein of …; test: competition: CHIPS given iv (0.1 mg/kg) against the binding of FITC-fMLP to FPR on gated blood neutrophils, flow cytometry [A) (cont.]

Row | Binder | binding result [1] | binding result [2]
1 | B1 | binds | –
2 | B2 | – | binds
